The target of assay [1] is T1, full-length human tau (human, UniProt P10636 2-757).
T1 construct: also called tau441; human tau isoform 2
As to the kind of experiment: SPR (Biacore S200), single-cycle, biotinylated antibody captured on streptavidin chip, tau as analyte, steady state affinity fit; IgG1 format. The method, then: (§1) (C) Single-cycle kinetics of AB1 to full-length human tau was determined using surface plasmon resonance. […] (D) The molecular weight (MW), binding affinity (KD) and activity for each of the AB1 antibody formats.
(§2) Surface plasmon resonance measurements were conducted at the Monash Fragment Platform, Monash University, using the Biacore S200 biosensor (GE Healthcare). Biotinylated AB1 was captured on a streptavidin-coated CM5 chip. For biotinylation, AB1 IgG1 (29.5 μM), AB1 IgG2a (32.0 μM), AB1 Fab (22.9 μM) and AB1 scFv (60.4 μM) (in 137 mM NaCl, 2.7 mM KCl, 10 mM Na2HPO4, 1.8 mM KH2PO4) was added in a 1:1 ratio with EZ-link NHS-LC-LC-biotin (Thermo Scientific) and incubated at 25° C. for 1 hr. Antibodies were separated from free-unconjugated biotin using size-exclusion chromatography on a Superdex 200 10/300 GL (GE Healthcare) or Superdex 75 10/300 Increase (GE Healthcare) equilibrated in 137 mM NaCl, 2.7 mM KCl, 12 mM Na2HPO4, 1.8 mM KH2PO4, pH 7.4. Streptavidin was immobilized on the CM5 chip using amine coupling at 37° C. […]
(In general: SPR reads the build-up and loss of mass on a sensor chip optically.)

For assay [2], the target named is T1, full-length human tau. As to the kind of experiment: SPR (Biacore S200), single-cycle, biotinylated antibody captured on streptavidin chip, tau as analyte, steady state affinity fit; IgG2a format. The protocol: as §1, §2
For assay [3], the target named is T1, full-length human tau. The experiment in a line: SPR (Biacore S200), single-cycle, biotinylated Fab captured on streptavidin chip, tau as analyte, steady state affinity fit; Fab, not IgG. The method, then: as §1, §2

T1 sequence (P10636 other isoform, or with tags, fused parts or gaps limits assumed): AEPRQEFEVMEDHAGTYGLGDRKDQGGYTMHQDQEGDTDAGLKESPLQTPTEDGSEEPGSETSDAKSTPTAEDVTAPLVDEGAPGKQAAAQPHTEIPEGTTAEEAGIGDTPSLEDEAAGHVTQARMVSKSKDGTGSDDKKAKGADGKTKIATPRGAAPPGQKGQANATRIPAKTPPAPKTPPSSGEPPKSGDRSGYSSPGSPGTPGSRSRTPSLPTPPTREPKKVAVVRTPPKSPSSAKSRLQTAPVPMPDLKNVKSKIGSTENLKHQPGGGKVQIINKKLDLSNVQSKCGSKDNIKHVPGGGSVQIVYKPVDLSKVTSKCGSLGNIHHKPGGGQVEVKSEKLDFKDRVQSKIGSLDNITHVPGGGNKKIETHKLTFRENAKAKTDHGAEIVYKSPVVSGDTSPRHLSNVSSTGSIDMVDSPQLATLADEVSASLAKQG

B1: AB1 IgG1 (antibody, V domains shown)
VH: QVQLKQSGPGLVQPSQSLSITCTVSGFSLTSYGVHWVRQSPGKGLEWLGVIWRGGSTDYNAAFMSRLSITKDNSKSQVFFKMNSLQADDTAIYYCAKNTNHRYDGYYAMDYWGQGTSVTVS
VL: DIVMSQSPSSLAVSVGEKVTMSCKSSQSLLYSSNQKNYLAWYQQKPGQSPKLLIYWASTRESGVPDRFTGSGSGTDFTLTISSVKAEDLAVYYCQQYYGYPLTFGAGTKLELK
notes: Expressed in Expi-CHO, about 156 kDa; For SPR it was biotinylated with NHS-LC-LC-biotin and captured on streptavidin; also called full-sized murine IgG1
For orientation: Kd means the concentration at which binding is half-saturated. Read a low Kd as tighter binding. The molecule B1 came in with a Kd in assay [1] of 0.407 µM.

B2: AB1 IgG2a (antibody, V domains shown)
VH: QVQLKQSGPGLVQPSQSLSITCTVSGFSLTSYGVHWVRQSPGKGLEWLGVIWRGGSTDYNAAFMSRLSITKDNSKSQVFFKMNSLQADDTAIYYCAKNTNHRYDGYYAMDYWGQGTSVTVS
VL: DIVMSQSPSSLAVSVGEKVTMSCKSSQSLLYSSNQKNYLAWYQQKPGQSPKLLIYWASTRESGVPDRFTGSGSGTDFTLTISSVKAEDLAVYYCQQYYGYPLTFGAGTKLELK
notes: About 156 kDa; Biotinylated and captured on streptavidin for SPR; also called full-sized murine IgG2a
The molecule B2 gave a Kd in assay [2] of 0.381 µM.

B3: AB1 Fab (Fab, V domains shown)
VH: QVQLKQSGPGLVQPSQSLSITCTVSGFSLTSYGVHWVRQSPGKGLEWLGVIWRGGSTDYNAAFMSRLSITKDNSKSQVFFKMNSLQADDTAIYYCAKNTNHRYDGYYAMDYWGQGTSVTVS
VL: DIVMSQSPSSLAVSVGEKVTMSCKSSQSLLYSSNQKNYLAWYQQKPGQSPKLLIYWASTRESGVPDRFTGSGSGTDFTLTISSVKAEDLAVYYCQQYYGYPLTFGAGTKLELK
notes: Biotinylated and captured on streptavidin for SPR
Consider B3, for which, in assay [3], the Kd is 0.298 µM.

Source of the values: patent US20210347869A1 (UNIVERSITY OF QUEENSLAND, published 2021).
